Reference: US20080249008A1 (published 2008)

B1: EGF mutant clone 30 (soluble) (ligand)
chain: SSNSGCPLSHDGYCLHDGVCMYIEALDRYACNCVVGYAGERCQYRDLKWWELR
notes: Produced solubly
B2: EGF mutant clone 121 (competitor on NR6 cells) (ligand)
chain: NSDPKCPLSHEGYCLNDGVCMYIGTLDRYACNCVVGYVGERCQYRDLKWLALR

Legend:
[1] = target: T1, EGFR on NR6 fibroblast cells (UniProt P00533 25-1210, limits assumed); test: competition with Alexa-488 labeled wt EGF on NR6 fibroblast cells, flow cytometry, 2 hr at 4 C
T1 construct: whole, on cells; also called fibroblast cells expressing EGFR; NR6 fibroblasts
Experimental: (§1) Fluorescence intensity of cell surface labeling was measured by flow cytometry.

[2] = target: T1, EGFR on NR6 fibroblast cells; test: competition for binding to fibroblast cells, flow cytometry
Experimental: as §1

| Binder | Kd [1] | IC50 [2] |
| --- | --- | --- |
| B1 | 0.56 nM | – |
| B2 | – | 0.14 nM |
